Measurements published in publication PMC2481281.

Assays:
[1] = target: α-wt C9 (CXCL12α with C-terminal bovine rhodopsin C9 tag) (mouse) (UniProt P40224); assay: SDS-PAGE and immunoblot; lysates of SFV-infected BHK cells separated by SDS-PAGE and probed with the K15C mAb; dimeric forms seen
[2] = target: γ-wt C9 (CXCL12γ with C-terminal bovine rhodopsin C9 tag) (mouse); assay: as above
[3] = target: CXCL12γ protein, chemically synthesized (γ-wt) (mouse); assay: SDS-PAGE and immunoblot; chemically synthesized chemokines separated by SDS-PAGE and probed with the K15C mAb; dimeric forms seen
[4] = target: CXCR7 on CXCR7-transduced A0.01 cells (UniProt P25106); assay: flow cytometry on cells; competition: 1 nM α-biot on CXCR7-transduced A0.01 cells with increasing concentrations of untagged chemokine, washed, labelled with 1 µg/ml streptavidin-PE; normalised to binding without competitor; one-site non-linear regression
Chain of UniProt P25106 (P25106 whole entry): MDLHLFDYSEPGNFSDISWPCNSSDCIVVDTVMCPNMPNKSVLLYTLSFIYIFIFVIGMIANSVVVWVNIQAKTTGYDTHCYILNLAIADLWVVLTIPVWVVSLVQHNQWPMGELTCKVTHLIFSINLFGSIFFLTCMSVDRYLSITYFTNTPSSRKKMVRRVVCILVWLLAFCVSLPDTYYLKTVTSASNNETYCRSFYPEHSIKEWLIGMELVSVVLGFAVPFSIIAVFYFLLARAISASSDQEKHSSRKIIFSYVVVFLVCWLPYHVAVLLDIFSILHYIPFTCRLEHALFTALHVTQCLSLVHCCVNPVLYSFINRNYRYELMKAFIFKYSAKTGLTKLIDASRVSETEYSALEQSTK

Question: For “α-wt C9 (CXCL12α with C-terminal bovine rhodopsin C9 tag) (from UniProt P40224-2 22-93) (ligand)”, which stoichiometry N [1] is on record?
Answer: Its stoichiometry N is 2.

Question: Which stoichiometry N [2] does the source give for “γ-wt C9 (CXCL12γ with C-terminal bovine rhodopsin C9 tag) (ligand)” here?
Answer: Its stoichiometry N is 2.

Question: How did the stoichiometry N [3] turn out when “CXCL12γ protein, chemically synthesized (γ-wt) (ligand)” was run?
Answer: The stoichiometry N was 2.

Question: And the IC50 [4]?
Answer: Its IC50 is 0.0104 µM.
